Reference: patent US20130086703

Test system: full-length human Keratin 6

## Kgp
  enzymatic degradation products detected by mass spectrometry (on spot profiling): peptides consisting of the amino acid sequences shown by SEQ ID NOs: 4 and 5 (peptides 6 and 7) were newly identified as Kgp degradation products of human Keratin 6
